Results published in PMC8298264, “Function of cofactor Akirin2 in the regulation of gene expression in model human neutrophil-like HL60 cells” (Bioscience Reports, 2021).

Tested on: human HL60 cells
Assay: SWATH-MS proteomics, differential protein representation, akirin2 KO vs WT HL60 cells
Type: cell-based
Conditions: KO vs WT; akirin2 KO vs WT HL60 cells; sheet "Under-represented in KO"
Procedure, shortened: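 First, proteins from wild-type and knockout cells are digested with trypsin by FASP. Next, pooled IDA runs generate a reference ion library. Then six samples of 5 µg each are acquired by data-independent SWATH, and protein areas are normalized to the summed area of all detected proteins.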

Molecule	Fold Change	Log (Fold Change)
sp¦P04899¦GNAI2_HUMAN (protein, UniProt P04899 2-355, looked up) Guanine nucleotide-binding …: GCTVSAEDKAAAERSKMIDKNLREDGEKAAREVKLLLLGAGESGKSTIVKQMKIIHEDGYSEEECRQYRAVVYSNTIQSIMAIVKAMGNLQIDFADPSRADDARQLFALSCTAEEQGVLPDDLSGVIRRLWADHGVQACFGRSREYQLNDSAAYYLNDLERIAQSDYIPTQQDVLRTRVKTTGIVETHFTFKDLHFKMFDVGGQRSERKKWIHCFEGVTAIIFCVALSAYDLVLAEDEEMNRMHESMKLFDSICNNKWFTDTSIILFLNKKDLFEEKITHSPLTICFPEYTGANKYDEAASYIQSKFEDLNKRKDTKEIYTHFTCATDTKNVQFVFDAVTDVIIKNNLKDCGLF	0.61	-0.2146
sp¦Q9UL25¦RAB21_HUMAN (protein, UniProt Q9UL25 2-222, looked up) Ras-related protein Rab-21: AAAGGGGGGAAAAGRAYSFKVVLLGEGCVGKTSLVLRYCENKFNDKHITTLQASFLTKKLNIGGKRVNLAIWDTAGQERFHALGPIYYRDSNGAILVYDITDEDSFQKVKNWVKELRKMLGNEICLCIVGNKIDLEKERHVSIQEAESYAESVGAKHYHTSAKQNKGIEELFLDLCKRMIETAQVDERAKGNGSSQPGTARRGVQIIDDEPQAQTSGGGCC	0.6117	-0.2135
sp¦Q8N5K1¦CISD2_HUMAN (protein, UniProt Q8N5K1 2-135, looked up) CDGSH iron-sulfur …: VLESVARIVKVQLPAYLKRLPVPESITGFARLTVSEWLRLLPFLGVLALLGYLAVRPFLPKKKQQKDSLINLKIQKENPKVVNEINIEDLCLTKAAYCRCWRSKTFPACDGSHNKHNELTGDNVGPLILKKKEV	0.6126	-0.2128
sp¦P27824¦CALX_HUMAN (protein, UniProt P27824 21-592, looked up) Calnexin: HDGHDDDVIDIEDDLDDVIEEVEDSKPDTTAPPSSPKVTYKAPVPTGEVYFADSFDRGTLSGWILSKAKKDDTDDEIAKYDGKWEVEEMKESKLPGDKGLVLMSRAKHHAISAKLNKPFLFDTKPLIVQYEVNFQNGIECGGAYVKLLSKTPELNLDQFHDKTPYTIMFGPDKCGEDYKLHFIFRHKNPKTGIYEEKHAKRPDADLKTYFTDKKTHLYTLILNPDNSFEILVDQSVVNSGNLLNDMTPPVNPSREIEDPEDRKPEDWDERPKIPDPEAVKPDDWDEDAPAKIPDEEATKPEGWLDDEPEYVPDPDAEKPEDWDEDMDGEWEAPQIANPRCESAPGCGVWQRPVIDNPNYKGKWKPPMIDNPSYQGIWKPRKIPNPDFFEDLEPFRMTPFSAIGLELWSMTSDIFFDNFIICADRRIVDDWANDGWGLKKAADGAAEPGVVGQMIEAAEERPWLWVVYILTVALPVFLVILFCCSGKKQTSGMEYKKTDAPQPDVKEEEEEKEEEKDKGDEEEEGEEKLEEKQKSDAEEDGGTVSQEEEDRKPKAEEDEILNRSPRNRKPRRE	0.6087	-0.2156
sp¦Q13464¦ROCK1_HUMAN (protein, UniProt Q13464 2-1354, looked up) Rho-associated protein kinase …: STGDSFETRFEKMDNLLRDPKSEVNSDCLLDGLDALVYDLDFPALRKNKNIDNFLSRYKDTINKIRDLRMKAEDYEVVKVIGRGAFGEVQLVRHKSTRKVYAMKLLSKFEMIKRSDSAFFWEERDIMAFANSPWVVQLFYAFQDDRYLYMVMEYMPGGDLVNLMSNYDVPEKWARFYTAEVVLALDAIHSMGFIHRDVKPDNMLLDKSGHLKLADFGTCMKMNKEGMVRCDTAVGTPDYISPEVLKSQGGDGYYGRECDWWSVGVFLYEMLVGDTPFYADSLVGTYSKIMNHKNSLTFPDDNDISKEAKNLICAFLTDREVRLGRNGVEEIKRHLFFKNDQWAWETLRDTVAPVVPDLSSDIDTSNFDDLEEDKGEEETFPIPKAFVGNQLPFVGFTYYSNRRYLSSANPNDNRTSSNADKSLQESLQKTIYKLEEQLHNEMQLKDEMEQKCRTSNIKLDKIMKELDEEGNQRRNLESTVSQIEKEKMLLQHRINEYQRKAEQENEKRRNVENEVSTLKDQLEDLKKVSQNSQLANEKLSQLQKQLEEANDLLRTESDTAVRLRKSHTEMSKSISQLESLNRELQERNRILENSKSQTDKDYYQLQAILEAERRDRGHDSEMIGDLQARITSLQEEVKHLKHNLEKVEGERKEAQDMLNHSEKEKNNLEIDLNYKLKSLQQRLEQEVNEHKVTKARLTDKHQSIEEAKSVAMCEMEKKLKEEREAREKAENRVVQIEKQCSMLDVDLKQSQQKLEHLTGNKERMEDEVKNLTLQLEQESNKRLLLQNELKTQAFEADNLKGLEKQMKQEINTLLEAKRLLEFELAQLTKQYRGNEGQMRELQDQLEAEQYFSTLYKTQVKELKEEIEEKNRENLKKIQELQNEKETLATQLDLAETKAESEQLARGLLEEQYFELTQESKKAASRNRQEITDKDHTVSRLEEANSMLTKDIEILRRENEELTEKMKKAEEEYKLEKEEEISNLKAAFEKNINTERTLKTQAVNKLAEIMNRKDFKIDRKKANTQDLRKKEKENRKLQLELNQEREKFNQMVVKHQKELNDMQAQLVEECAHRNELQMQLASKESDIEQLRAKLLDLSDSTSVASFPSADETDGNLPESRIEGWLSVPNRGNIKRYGWKKQYVVVSSKKILFYNDEQDKEQSNPSMVLDIDKLFHVRPVTQGDVYRAETEEIPKIFQILYANEGECRKDVEMEPVQQAEKTNFQNHKGHEFIPTLYHFPANCDACAKPLWHVFKPPPALECRRCHVKCHRDHLDKKEDLICPCKVSYDVTSARDMLLLACSQDEQKKWVTHLVKKIPKNPPSGFVRASPRTLSTRSTANQSFRKVVKNTSGKTS	0.6099	-0.2148
sp¦O00567¦NOP56_HUMAN (protein, UniProt O00567 1-594, looked up) Nucleolar protein 56: MVLLHVLFEHAVGYALLALKEVEEISLLQPQVEESVLNLGKFHSIVRLVAFCPFASSQVALENANAVSEGVVHEDLRLLLETHLPSKKKKVLLGVGDPKIGAAIQEELGYNCQTGGVIAEILRGVRLHFHNLVKGLTDLSACKAQLGLGHSYSRAKVKFNVNRVDNMIIQSISLLDQLDKDINTFSMRVREWYGYHFPELVKIINDNATYCRLAQFIGNRRELNEDKLEKLEELTMDGAKAKAILDASRSSMGMDISAIDLINIESFSSRVVSLSEYRQSLHTYLRSKMSQVAPSLSALIGEAVGARLIAHAGSLTNLAKYPASTVQILGAEKALFRALKTRGNTPKYGLIFHSTFIGRAAAKNKGRISRYLANKCSIASRIDCFSEVPTSVFGEKLREQVEERLSFYETGEIPRKNLDVMKEAMVQAEEAAAEITRKLEKQEKKRLKKEKKRLAALALASSENSSSTPEECEEMSEKPKKKKKQKPQEVPQENGMEDPSISFSKPKKKKSFSKEELMSSDLEETAGSTSIPKRKKSTPKEETVNDPEEAGHRSGSKKKRKFSKEEPVSSGPEEAVGKSSSKKKKKFHKASQED	0.6041	-0.2189
sp¦P08559¦ODPA_HUMAN (protein, UniProt P08559 30-390, looked up) Pyruvate dehydrogenase E1 …: FANDATFEIKKCDLHRLEEGPPVTTVLTREDGLKYYRMMQTVRRMELKADQLYKQKIIRGFCHLCDGQEACCVGLEAGINPTDHLITAYRAHGFTFTRGLSVREILAELTGRKGGCAKGKGGSMHMYAKNFYGGNGIVGAQVPLGAGIALACKYNGKDEVCLTLYGDGAANQGQIFEAYNMAALWKLPCIFICENNRYGMGTSVERAAASTDYYKRGDFIPGLRVDGMDILCVREATRFAAAYCRSGKGPILMELQTYRYHGHSMSDPGVSYRTREEIQEVRSKSDPIMLLKDRMVNSNLASVEELKEIDVEVRKEIEDAAQFATADPEPPLEELGYHIYSSDPPFEVRGANQWIKFKSVS	0.6031	-0.2196
sp¦O43592¦XPOT_HUMAN (protein, UniProt O43592 1-962, looked up) Exportin-T: MDEQALLGLNPNADSDFRQRALAYFEQLKISPDAWQVCAEALAQRTYSDDHVKFFCFQVLEHQVKYKYSELTTVQQQLIRETLISWLQAQMLNPQPEKTFIRNKAAQVFALLFVTEYLTKWPKFFFDILSVVDLNPRGVDLYLRILMAIDSELVDRDVVHTSEEARRNTLIKDTMREQCIPNLVESWYQILQNYQFTNSEVTCQCLEVVGAYVSWIDLSLIANDRFINMLLGHMSIEVLREEACDCLFEVVNKGMDPVDKMKLVESLCQVLQSAGFFSIDQEEDVDFLARFSKLVNGMGQSLIVSWSKLIKNGDIKNAQEALQAIETKVALMLQLLIHEDDDISSNIIGFCYDYLHILKQLTVLSDQQKANVEAIMLAVMKKLTYDEEYNFENEGEDEAMFVEYRKQLKLLLDRLAQVSPELLLASVRRVFSSTLQNWQTTRFMEVEVAIRLLYMLAEALPVSHGAHFSGDVSKASALQDMMRTLVTSGVSSYQHTSVTLEFFETVVRYEKFFTVEPQHIPCVLMAFLDHRGLRHSSAKVRSRTAYLFSRFVKSLNKQMNPFIEDILNRIQDLLELSPPENGHQSLLSSDDQLFIYETAGVLIVNSEYPAERKQALMRNLLTPLMEKFKILLEKLMLAQDEERQASLADCLNHAVGFASRTSKAFSNKQTVKQCGCSEVYLDCLQTFLPALSCPLQKDILRSGVRTFLHRMIICLEEEVLPFIPSASEHMLKDCEAKDLQEFIPLINQITAKFKIQVSPFLQQMFMPLLHAIFEVLLRPAEENDQSAALEKQMLRRSYFAFLQTVTGSGMSEVIANQGAENVERVLVTVIQGAVEYPDPIAQKTCFIILSKLVELWGGKDGPVGFADFVYKHIVPACFLAPLKQTFDLADAQTVLALSECAVTLKTIHLKRGPECVQYLQQEYLPSLQVAPEIIQEFCQALQQPDAKVFKNYLKVFFQRAKP	0.6107	-0.2142
sp¦Q9UJZ1¦STML2_HUMAN (protein, UniProt Q9UJZ1 29-356, looked up) Stomatin-like protein 2, …: SSGLPRNTVVLFVPQQEAWVVERMGRFHRILEPGLNILIPVLDRIRYVQSLKEIVINVPEQSAVTLDNVTLQIDGVLYLRIMDPYKASYGVEDPEYAVTQLAQTTMRSELGKLSLDKVFRERESLNASIVDAINQAADCWGIRCLRYEIKDIHVPPRVKESMQMQVEAERRKRATVLESEGTRESAINVAEGKKQAQILASEAEKAEQINQAAGEASAVLAKAKAKAEAIRILAAALTQHNGDAAASLTVAEQYVSAFSKLAKDSNTILLPSNPGDVTSMVAQAMGVYGALTKAPVPGTPDSLSSGSSRDVQGTDASLDEELDRVKMS	0.6025	-0.22

Same assay, conditions: akirin2 KO vs WT HL60 cells; sheet "Under-represented in KO"

Molecule	Fold Change	Log (Fold Change)
sp¦P84103¦SRSF3_HUMAN (protein, UniProt P84103 1-164, looked up) Serine/arginine-rich splicing …: MHRDSCPLDCKVYVGNLGNNGNKTELERAFGYYGPLRSVWVARNPPGFAFVEFEDPRDAADAVRELDGRTLCGCRVRVELSNGEKRSRNRGPPPSWGRRPRDDYRRRSPPPRRRSPRRRSFSRSRSRSLSRDRRRERSLSRERNHKPSRSFSRSRSRSRSNERK	0.2712	-0.5667
